The supplement of paper PMC5998384

Key:
HeLa Kyoto [1] = assay: solubility change mitosis vs G1/S (difference of NP-40 vs SDS log2 ratios) (log2 ratio difference); higher = more soluble in mitosis
HeLa Kyoto [2] = assay: melting temperature (median over replicates), in situ; higher = more thermally stable
HeLa Kyoto [3] = assay: thermal stability score vs G1/S (z-score of summed log2 fold changes over temperatures); higher = more thermally stable than in G1/S
[4] = cell cycle stage: early G1 (4.5 h after nocodazole release)
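Wherever melting temperature (median over replicates), in situ is given: HeLa Kyoto cells synchronized by double thymidine or nocodazole block, proteins quantified by TMT10plex mass spectrometry, three independent biological replicates.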
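Wherever solubility change mitosis vs G1/S (difference of NP-40 vs SDS log2 ratios) is given: synchronized HeLa Kyoto cells (double thymidine block for G1/S, nocodazole release for mitosis), protein amounts in NP-40 versus SDS lysates quantified by mass spectrometry, three biological replicates.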
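Wherever thermal stability score vs G1/S (z-score of summed log2 fold changes over temperatures) is given: synchronized HeLa Kyoto cells, proteins quantified by TMT10plex mass spectrometry, three biological replicates, mitosis taken 0.5 h after nocodazole release, G1/S directly after double thymidine block.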

Substance	solubility change mitosis (log2) (HeLa Kyoto [1])	further results
S100A6	0.893	–
RPS10	0.59	–
MEAF6	0.685	–
ETF1	-0.146	–
RPL4	0.805	–
LARP1	0.306	–
RPL32	0.91	–
MRPL47	0.0261	–
MRPS18B	0.111	–
MRPL4	-0.11	–
DPP7	0.00739	–
ACTA1	-0.193	–
RPS4X	0.489	–
MRPL35	0.149	–
MRPS14	0.165	–
RPL30	0.776	–
EI24	-0.07	–
DNMT3B	0.67	–
RPL35A	0.707	–
COLGALT1	0.0451	–
GORASP2	-0.317	–
RPS21	0.45	–
DYRK1A	0.0078	–
RPS3A	0.538	–
FNTA	-0.132	–
MRPS9	-0.0743	–

Substance	solubility change mitosis (log2) (HeLa Kyoto [1])	further results
RPL27	0.573	–
HPCAL1	-0.0209	–
MRPL46	0.212	–
MRPS5	0.017	–
DPYSL2	-0.147	–
RPL37	1.29	–
MRPL3	-0.0054	–
LRPPRC	-0.118	–
MALSU1	-0.0468	–
NCK1	-0.221	–
MRPL18	0.126	–
POLR2B	0.175	–
IFI30	0.347	–
RPS5	0.452	–
RPL29	1.68	–
AJUBA	-0.0418	–
MSEGDSVGESVHGKPSVVYRFFTRLGQIYQSWLDKSTPYTAVRWVVTLGLSFVYMIRVYLLQGWYIVTYALGIYHLNLFIAFLSPKVDPSLMEDSDDGPSLPTKQNEEFRPFIRRLPEFKFWHAATKGILVAMVCTFFDAFNVPVFWPILVMYFIMLFCITMKRQIKHMIKYRYIPFTHGKRRYRGKEDAGKAFAS [RER1]	–	melting temperature (HeLa Kyoto [2]; cell cycle stage: G1/S): 55.1 °C; melting temperature (HeLa Kyoto [2]; cell cycle stage: mitosis): 55.5 °C; thermal stability score (HeLa Kyoto [3]; [4]): -0.257; thermal stability score (HeLa Kyoto [3]; cell cycle stage: mitosis): -1.81
MVAPVWYLVAAALLVGFILFLTRSRGRAASAGQEPLHNEELAGAGRVAQPGPLEPEEPRAGGRPRRRRDLGSRLQAQRRAQRVAWAEADENEEEAVILAQEEEGVEKPAETHLSGKIGAKKLRKLEEKQARKAQREAEEAEREERKRLESQREAEWKKEEERLRLEEEQKEEEERKAREEQAQREHEEYLKLKEAFVVEEEGVGETMTEEQSQSFLTEFINYIKQSKVVLLEDLASQVGLRTQDTINRIQDLLAEGTITGVIDDRGKFIYITPEELAAVANFIRQRGRVSIAELAQASNSLIAWGRESPAQAPA [DDRGK1]	–	melting temperature (HeLa Kyoto [2]; cell cycle stage: G1/S): 52.9 °C; melting temperature (HeLa Kyoto [2]; cell cycle stage: mitosis): 52.9 °C; thermal stability score (HeLa Kyoto [3]; [4]): -0.767; thermal stability score (HeLa Kyoto [3]; cell cycle stage: mitosis): -0.701
SLAIN2	-0.187	–
CHAF1B	0.105	–
MRPL40	0.188	–
POLB	-0.0195	–
MRPL53	0.25	–
VPS35	-0.178	–
SNX27	-0.11	–
ITM2B	–	melting temperature (HeLa Kyoto [2]; cell cycle stage: G1/S): 55.2 °C; melting temperature (HeLa Kyoto [2]; cell cycle stage: mitosis): 54.7 °C; thermal stability score (HeLa Kyoto [3]; [4]): 5.19; thermal stability score (HeLa Kyoto [3]; cell cycle stage: mitosis): 0.613

Substance	solubility change mitosis (log2) (HeLa Kyoto [1])	further results
MWRWIRQQLGFDPPHQSDTRTIYVANRFPQNGLYTPQKFIDNRIISSKYTVWNFVPKNLFEQFRRVANFYFLIIFLVQLMIDTPTSPVTSGLPLFFVITVTAIKQGYEDWLRHNSDNEVNGAPVYVVRSGGLVKTRSKNIRVGDIVRIAKDEIFPADLVLLSSDRLDGSCHVTTASLDGETNLKTHVAVPETALLQTVANLDTLVAVIECQQPEADLYRFMGRMIITQQMEEIVRPLGPESLLLRGARLKNTKEIFGVAVYTGMETKMALNYKSKSQKRSAVEKSMNTFLIIYLVILISEAVISTILKYTWQAEEKWDEPWYNQKTEHQRNSSKILRFISDFLAFLVLYNFIIPISLYVTVEMQKFLGSFFIGWDLDLYHEESDQKAQVNTSDLNEELGQVEYVFTDKTGTLTENEMQFRECSINGMKYQEINGRLVPEGPTPDSSEGNLSYLSSLSHLNNLSHLTTSSSFRTSPENETELIKEHDLFFKAVSLCHTVQISNVQTDCTGDGPWQSNLAPSQLEYYASSPDEKALVEAAARIGIVFIGNSEETMEVKTLGKLERYKLLHILEFDSDRRRMSVIVQAPSGEKLLFAKGAESSILPKCIGGEIEKTRIHVDEFALKGLRTLCIAYRKFTSKEYEEIDKRIFEARTALQQREEKLAAVFQFIEKDLILLGATAVEDRLQDKVRETIEALRMAGIKVWVLTGDKHETAVSVSLSCGHFHRTMNILELINQKSDSECAEQLRQLARRITEDHVIQHGLVVDGTSLSLALREHEKLFMEVCRNCSAVLCCRMAPLQKAKVIRLIKISPEKPITLAVGDGANDVSMIQEAHVGIGIMGKEGRQAARNSDYAIARFKFLSKLLFVHGHFYYIRIATLVQYFFYKNVCFITPQFLYQFYCLFSQQTLYDSVYLTLYNICFTSLPILIYSLLEQHVDPHVLQNKPTLYRDISKNRLLSIKTFLYWTILGFSHAFIFFFGSYLLIGKDTSLLGNGQMFGNWTFGTLVFTVMVITVTVKMALETHFWTWINHLVTWGSIIFYFVFSLFYGGILWPFLGSQNMYFVFIQLLSSGSAWFAIILMVVTCLFLDIIKKVFDRHLHPTSTEKAQLTETNAGIKCLDSMCCFPEGEAACASVGRMLERVIGRCSPTHISRSWSASDPFYTNDRSILTLSTMDSSTC [ATP11B]	–	melting temperature (HeLa Kyoto [2]; cell cycle stage: G1/S): 57.4 °C; melting temperature (HeLa Kyoto [2]; cell cycle stage: mitosis): 55.5 °C; thermal stability score (HeLa Kyoto [3]; [4]): -2.25; thermal stability score (HeLa Kyoto [3]; cell cycle stage: mitosis): -0.924
BCKDK	-0.0559	–
PTCD3	-0.182	–
SARS	-0.0633	–
NT5C3A	-0.0945	–
POLR2E	0.311	–
MRPS25	0.166	–
MAASGPGCRSWCLCPEVPSATFFTALLSLLVSGPRLFLLQQPLAPSGLTLKSEALRNWQVYRLVTYIFVYENPISLLCGAIIIWRFAGNFERTVGTVRHCFFTVIFAIFSAIIFLSFEAVSSLSKLGEVEDARGFTPVAFAMLGVTTVRSRMRRALVFGMVVPSVLVPWLLLGASWLIPQTSFLSNVCGLSIGLAYGLTYCYSIDLSERVALKLDQTFPFSLMRRISVFKYVSGSSAERRAAQSRKLNPVPGSYPTQSCHPHLSPSHPVSQTQHASGQKLASWPSCTPGHMPTLPPYQPASGLCYVQNHFGPNPTSSSVYPASAGTSLGIQPPTPVNSPGTVYSGALGTPGAAGSKESSRVPMP [RHBDD2]	–	melting temperature (HeLa Kyoto [2]; cell cycle stage: mitosis): 52.5 °C; thermal stability score (HeLa Kyoto [3]; [4]): -1.05; thermal stability score (HeLa Kyoto [3]; cell cycle stage: mitosis): -1.48
MAFLGLFSLLVLQSMATGATFPEEAIADLSVNMYNRLRATGEDENILFSPLSIALAMGMMELGAQGSTQKEIRHSMGYDSLKNGEEFSFLKEFSNMVTAKESQYVMKIANSLFVQNGFHVNEEFLQMMKKYFNAAVNHVDFSQNVAVANYINKWVENNTNNLVKDLVSPRDFDAATYLALINAVYFKGNWKSQFRPENTRTFSFTKDDESEVQIPMMYQQGEFYYGEFSDGSNEAGGIYQVLEIPYEGDEISMMLVLSRQEVPLATLEPLVKAQLVEEWANSVKKQKVEVYLPRFTVEQEIDLKDVLKALGITEIFIKDANLTGLSDNKEIFLSKAIHKSFLEVNEEGSEAAAVSGMIAISRMAVLYPQVIVDHPFFFLIRNRRTGTILFMGRVMHPETMNTSGHDFEEL [SERPINI1]	–	melting temperature (HeLa Kyoto [2]; cell cycle stage: G1/S): 57 °C; melting temperature (HeLa Kyoto [2]; cell cycle stage: mitosis): 57.8 °C; thermal stability score (HeLa Kyoto [3]; [4]): 0.548; thermal stability score (HeLa Kyoto [3]; cell cycle stage: mitosis): 1.27
TMEM263	0.0364	–
GAA	-0.231	–
GADD45GIP1	0.258	–
RAC1	-0.0656	–
EMG1	0.19	–
RPL23	0.476	–
NCKIPSD	-0.148	–
MRPS30	-0.14	–
AK2	0.09	–
TUFM	-0.0187	–
RPL13	0.759	–
MGKVWKQQMYPQYATYYYPQYLQAKQSLVPAHPMAPPSPSTTSSNNNSSSSSNSGWDQLSKTNLYIRGLPPHTTDQDLVKLCQPYGKIVSTKAILDKTTNKCKGYGFVDFDSPAAAQKAVSALKASGVQAQMAKQQEQDPTNLYISNLPLSMDEQELENMLKPFGQVISTRILRDSSGTSRGVGFARMESTEKCEAVIGHFNGKFIKTPPGVSAPTEPLLCKFADGGQKKRQNPNKYIPNGRPWHREGEVRLAGMTLTYDPTTAAIQNGFYPSPYSIATNRMITQTSITPYIASPVSAYQVQSPSWMQPQPYILQHPGAVLTPSMEHTMSLQPASMISPLAQQMSHLSLGSTGTYMPATSAMQGAYLPQYAHMQTTAVPVEEASGQQQVAVETSNDHSPYTFQPNK [RBMS1]	–	melting temperature (HeLa Kyoto [2]; cell cycle stage: G1/S): 53.4 °C; melting temperature (HeLa Kyoto [2]; cell cycle stage: mitosis): 52.4 °C; thermal stability score (HeLa Kyoto [3]; [4]): -0.758; thermal stability score (HeLa Kyoto [3]; cell cycle stage: mitosis): -1.24
HSPG2	-0.021	–
MVPGAAGWCCLVLWLPACVAAHGFRIHDYLYFQVLSPGDIRYIFTATPAKDFGGIFHTRYEQIHLVPAEPPEACGELSNGFFIQDQIALVERGGCSFLSKTRVVQEHGGRAVIISDNAVDNDSFYVEMIQDSTQRTADIPALFLLGRDGYMIRRSLEQHGLPWAIISIPVNVTSIPTFELLQPPWTFW [PRADC1]	–	melting temperature (HeLa Kyoto [2]; cell cycle stage: G1/S): 53.8 °C; melting temperature (HeLa Kyoto [2]; cell cycle stage: mitosis): 52.7 °C; thermal stability score (HeLa Kyoto [3]; [4]): -2.33; thermal stability score (HeLa Kyoto [3]; cell cycle stage: mitosis): -2.03
MAARRRRSTGGGRARALNESKRVNNGNTAPEDSSPAKKTRRCQRQESKKMPVAGGKANKDRTEDKQDGMPGRSWASKRVSESVKALLLKGKAPVDPECTAKVGKAHVYCEGNDVYDVMLNQTNLQFNNNKYYLIQLLEDDAQRNFSVWMRWGRVGKMGQHSLVACSGNLNKAKEIFQKKFLDKTKNNWEDREKFEKVPGKYDMLQMDYATNTQDEEETKKEESLKSPLKPESQLDLRVQELIKLICNVQAMEEMMMEMKYNTKKAPLGKLTVAQIKAGYQSLKKIEDCIRAGQHGRALMEACNEFYTRIPHDFGLRTPPLIRTQKELSEKIQLLEALGDIEIAIKLVKTELQSPEHPLDQHYRNLHCALRPLDHESYEFKVISQYLQSTHAPTHSDYTMTLLDLFEVEKDGEKEAFREDLHNRMLLWHGSRMSNWVGILSHGLRIAPPEAPITGYMFGKGIYFADMSSKSANYCFASRLKNTGLLLLSEVALGQCNELLEANPKAEGLLQGKHSTKGLGKMAPSSAHFVTLNGSTVPLGPASDTGILNPDGYTLNYNEYIVYNPNQVRMRYLLKVQFNFLQLW [PARP2]	–	melting temperature (HeLa Kyoto [2]; cell cycle stage: G1/S): 47.1 °C; melting temperature (HeLa Kyoto [2]; cell cycle stage: mitosis): 50.5 °C; thermal stability score (HeLa Kyoto [3]; [4]): 1.04; thermal stability score (HeLa Kyoto [3]; cell cycle stage: mitosis): 1.69
